Entries after “also recorded” stand apart in the source; their conditions may differ.
How the values were obtained:
[1] = Stability assessment of peptide after extraction from the liver (reversed phase HPLC); type: in vivo, uPA+/−/RAG-2−/−Pfp−/− mice; details: liver extracts 24 h post subcutaneous injection, 131I-labelled
Method: Per animal approximately 2.25 μg of the ^131I-labelled peptides were subcutaneously injected. At the indicated time points animals were sacrificed and the liver specific peptide accumulation (% ID/g) was determined. (B) Reversed phase HPLC of pure ^131I-labelled HBVpreS/2-48^myr(D) (brown curve) in comparison to liver extracts (orange curve) obtained 24 h post subcutaneous injection into uPA+/−/RAG-2−/−Pfp−/− mice of the same peptide. Note that 50% of detectable activity is eluting at fraction 13. Since the hydrophobic myristoyl residue is located at the N-terminus and the iodinated Tyr-residue at the C-terminus fraction 13 represents the unaltered full-length peptide.
To determine the peptide stability in the liver 131I labelled HBVpreS/2-48^myr (D) was extracted from one liver lobe 24 h post subcutaneous injection. To that aim, 1 ml water per gram frozen liver tissue was added to the sample. After homogenization an equal volume of acetonitrile was added and the homogenization was repeated. After centrifugation (2×10 min at 4000×g) this solution was separated on a reverse phase HPLC column and the radioactivity of each fraction was quantified in a gamma counter.

[2] = Biodistribution of 131I-labelled peptides after subcutaneous injection in NMRI mice; type: in vivo, male NMRI mice; details: 2.25 μg 131I-labeled peptide s.c., 10 min, 1 h, 4 h and 24 h post injection
Method: Per time point 2.25 μg of ^131I-labeled HBVpreS/2-48^myr(D) were subcutaneously injected into NMRI mice (N=3). 10 min, 1 h, 4 h and 24 h post injection animals were sacrificed and the organ-specific (blood, lung, heart, spleen, liver, kidney and muscle) peptide accumulations (% ID/g) were determined.
The biodistribution of the hydrophobic modified preS-derived peptides was studied in male NMRI mice. All experiments were performed in compliance with German laws. The peptides, containing an additional Tyr-residue at the C-terminal end were labelled with ^131I (Amersham Biosciences, Freiburg, Germany) by the chloramine-T method and purified by HPLC. The labelled peptides were subcutaneously administered by injection of a solution in 50% DMSO. At selected times mice were sacrificed and the radioactivity contained in the blood, heart, lung, spleen, liver, kidney, muscle and brain was measured in a γ-counter (Canberra Packard, Rüsselsheim, Germany) and expressed as a percentage of injected dose per gram of tissue (% ID/g).

[3] = Biodistribution after subcutaneous application in uPA+/−/RAG-2−/−Pfp−/− mice; type: in vivo; details: 2.25 μg 131I-labeled peptide s.c., 10 min to 24 h
[4] = test system: Primary mouse hepatocytes (PMH); experiment: FACS analysis of binding to primary mouse hepatocytes; type: cell-based; details: 200 nM, 30 minutes at room temperature
Method: Cryo-preserved primary hepatocytes were thawed and washed with serum-free medium. In each reaction 4×10^5 cells/ml were incubated with the respective peptide at a concentration of 200 nM in serum-free cell culture medium. The staining was performed for 30 minutes at room temperature with frequent mixing. Subsequently, cells were washed extensively and resuspended in PBS to proceed with the FACS analysis.

[5] = test system: HepaRG cells; experiment: Immunofluorescence binding to HepaRG cells; type: cell-based; details: 400 nM peptide, 4 hours at 37° C.
Method: (§1) Cells were incubated with or without 400 nM peptide for 4 hours at 37° C.:
HepaRG cells were grown in William's E medium supplemented with 10% fetal calf serum (FCS), 100 units/ml penicillin, 100 μg/ml streptomycin, 5 μg/ml insulin and 5×10^−5 M hydrocortisone hemisuccinate (10). Cells were passaged 1/5 every two weeks by trypsination. Two to three weeks before infection cell differentiation was induced by adding 2% DMSO into the maintenance medium. The medium was exchanged every 2-3 days.
(§2) Primary hepatocytes grown on cover slips were incubated with the respective peptide at 200 nM in serum-free cell culture medium. After 1 hour incubation at 37° C. cells were fixed and nuclei were stained with DAPI. Fluorescence microscopy was performed on a Spinning Disk Confocal Microscope at 600× magnification.

[6] = test system: Primary mouse hepatocytes (PMH); experiment: Immunofluorescence binding to primary mouse hepatocytes; type: cell-based; details: 400 nM peptide, 4 hours at 37° C.; for Binding to primary mouse hepatocytes (PMH): differentiated PMH
Method: as §1
[…] After 1 hour incubation at 37° C. cells were fixed and nuclei were stained with DAPI. Fluorescence microscopy was performed on a Spinning Disk Confocal Microscope at 600× magnification.

[7] = test system: primary human hepatocytes (PHH); experiment: Immunofluorescence binding to primary human hepatocytes; type: cell-based; details: 400 nM peptide for 4 hours, confocal immunofluorescence
Method: Primary human hepatocytes (PHH) were incubated with or without 400 nM peptide for 4 hours:
as §2

Substance | detectable activity eluting at fraction 13 (unaltered full-length peptide) in liver extract [1] [%] | organ-specific peptide accumulation (biodistribution) [2] | organ-specific peptide accumulation (biodistribution) [3] | Binding to primary mouse hepatocytes (PMH), FACS analysis [4] | Binding to differentiated HepaRG cells [5] | Binding to primary mouse hepatocytes (PMH) [6] | Binding to primary human hepatocytes (PHH) [7] | Binding to undifferentiated HepaRG cells ([5]; undifferentiated cells) | Binding to de-differentiated primary mouse hepatocytes (PMH) ([6]; de-differentiated PMH)
HBVpreS/2-48^myr(D): SEQ ID NO. 23, genotype D residues 2-48, N-terminus myristoylated | 50 | most of the peptide accumulates in the liver | most of the peptide accumulates in the liver | – | – | – | – | – | –
mut myr-FITC: HBVpreS/2-48 myr (C)-FITC with D-Leu and D-Phe at positions L11 and F13 [reference compound] | – | – | – | Only wt myr-FITC binds to the cells | Only wt myr-FITC binds to the cells | Only wt myr-FITC binds to the cells | only in B binding of the peptide to the cells can be seen | – | –
wt myr(−)-FITC: HBVpreS/2-48(C)-FITC without myristoylation [reference compound] | – | – | – | – | Only wt myr-FITC binds to the cells | Only wt myr-FITC binds to the cells | only in B binding of the peptide to the cells can be seen | – | –
wt myr-FITC: HBVpreS/2-48 myr (C) with lysine at the C-terminus [SEQ ID NO. 39], labelled with FITC | – | – | – | Only wt myr-FITC binds to the cells | Only wt myr-FITC binds to the cells; also recorded: binds only to differentiated cells | Only wt myr-FITC binds to the cells; also recorded: binds only to differentiated cells | only in B binding of the peptide to the cells can be seen | binds only to differentiated cells | binds only to differentiated cells
